The experiment concerns the target RIM1α C2B domain. As to the kind of experiment: AUC.

Among the data in paper PMC2154361 are Kd and stoichiometry N values, retold here.

By Kd is commonly meant the concentration at which binding is half-saturated. High values mean a looser complex, low ones a tighter complex. A word on the stoichiometry N: it is the number of molecules, sites or subunits per partner or assembly.

The substance RIM1α C2B domain (domain or fragment) registered a Kd of 90 µM and a stoichiometry N of 2.
